Measurements from patent US20080138349A1 (MacroGenics, published 2008).

T1: FcγRIIB-Fc fusion protein, soluble dimeric: extracellular domain of FcγRIIB fused to the hinge-CH2-CH3 domain … (human, UniProt P31994 43-217, limits assumed)
T1 construct: extracellular domain; also called FcRIIB-Fc; FcR2B; not shown: human IgG2 hinge-CH2-CH3
T1 sequence (looked up): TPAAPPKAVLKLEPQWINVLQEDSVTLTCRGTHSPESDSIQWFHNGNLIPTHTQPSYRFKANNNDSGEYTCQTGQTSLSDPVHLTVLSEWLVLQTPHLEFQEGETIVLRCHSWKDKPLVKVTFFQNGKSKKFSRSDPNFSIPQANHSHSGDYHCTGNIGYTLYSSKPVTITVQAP

T2: 2aH131Fcagl (FcγRIIA 131H-Fc) (UniProt P12318 34-217, limits assumed)
T2 construct: also called FcγRIIA H131; not shown: Fc part; label Fcagl is not explained
T2 sequence (looked up): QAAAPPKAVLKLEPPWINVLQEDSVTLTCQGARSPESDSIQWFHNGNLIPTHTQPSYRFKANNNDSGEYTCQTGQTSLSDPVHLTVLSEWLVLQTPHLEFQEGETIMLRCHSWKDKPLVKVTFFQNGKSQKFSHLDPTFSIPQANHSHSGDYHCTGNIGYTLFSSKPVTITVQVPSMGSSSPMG

T3: 2bfcagl (FcγRIIB-Fc) (UniProt P31994 43-217, limits assumed)
T3 construct: label not explained; may be m4 or an aglycosylated form of it; not shown: Fc part; label fcagl is not explained
T3 sequence (looked up): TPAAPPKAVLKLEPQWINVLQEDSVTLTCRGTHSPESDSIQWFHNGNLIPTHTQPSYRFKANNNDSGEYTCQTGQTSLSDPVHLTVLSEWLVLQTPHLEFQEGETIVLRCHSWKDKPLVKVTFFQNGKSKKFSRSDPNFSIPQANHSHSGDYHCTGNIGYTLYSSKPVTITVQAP

T4: 2aR131Fcagl (FcγRIIA 131R-Fc) (UniProt P12318 34-217, limits assumed)
T4 construct: not shown: Fc part; label Fcagl is not explained
T4 sequence (looked up): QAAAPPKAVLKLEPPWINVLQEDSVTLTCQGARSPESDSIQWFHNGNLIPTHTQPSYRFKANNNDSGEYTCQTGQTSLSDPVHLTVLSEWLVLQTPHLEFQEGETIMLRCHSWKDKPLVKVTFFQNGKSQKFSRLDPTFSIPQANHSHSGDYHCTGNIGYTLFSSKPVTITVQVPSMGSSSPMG


What was measured:
FcγRIIIA [1] = target: T5, FcγRIIIA (UniProt P08637 17-208, limits assumed); test: ELISA
T5 construct: also called CD16A
T5 sequence (P08637 17-208 limits assumed): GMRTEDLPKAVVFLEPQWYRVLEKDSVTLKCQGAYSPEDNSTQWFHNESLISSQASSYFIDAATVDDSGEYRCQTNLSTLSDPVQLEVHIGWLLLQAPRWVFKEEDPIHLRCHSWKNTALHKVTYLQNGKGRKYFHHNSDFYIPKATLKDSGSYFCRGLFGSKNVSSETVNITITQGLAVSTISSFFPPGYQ

[2] = target: T6, soluble monomeric FcγRIIIA, the extracellular region of FcγRIIIA joined to the linker-AVITAG sequence (UniProt P08637 17-208, limits assumed); test: BIAcore
T6 construct: extracellular domain; also called FcRIIIA; FcR3A
T6 sequence (P08637 17-208 limits assumed): as above

[3] = target: T1, FcγRIIB-Fc fusion protein, soluble …; test: BIAcore
FcγRIIIA [4] = target: T5, FcγRIIIA; test: ELISA; remark: listed apart in the source
FcγRIIIA [5] = target: T5, FcγRIIIA; test: ELISA; remark: listed apart in the source
[6] = target: T6, soluble monomeric FcγRIIIA, the …; test: BIAcore, antibody captured on BSA-FITC
[7] = target: T1, FcγRIIB-Fc fusion protein, soluble …; test: ELISA of the ch4-4-20 Fc variant for FcγRIIB-Fc fusion protein, value listed beside the sensorgram
FcγRIIIA 158V, soluble = target: T7, FcγRIIIA 158V, soluble (UniProt P08637 17-208, limits assumed); test: BIAcore, 2B6 captured by soluble CD32B
T7 construct: also called 3aV158
T7 sequence (P08637 17-208 F176V limits assumed): as the sequence (P08637 17-208 limits assumed) above, with F160V counted along it

[8] = target: T2, 2aH131Fcagl (FcγRIIA 131H-Fc); test: BIAcore, 2B6 captured by soluble CD32B
2bfcagl (FcγRIIB-Fc) = target: T3, 2bfcagl (FcγRIIB-Fc); test: BIAcore, 2B6 captured by soluble CD32B
FcγRIIIA 158F, soluble = target: T8, FcγRIIIA 158F, soluble (UniProt P08637 17-208, limits assumed); test: BIAcore, 2B6 captured by soluble CD32B
T8 construct: also called 3aF158
T8 sequence (P08637 17-208 limits assumed): as the sequence (P08637 17-208 limits assumed) above

[9] = target: T4, 2aR131Fcagl (FcγRIIA 131R-Fc); test: BIAcore, 2B6 captured by soluble CD32B
C1q = target: T9, C1q; test: BIAcore, 2B6 captured by soluble CD32B
T9 construct: also called first component of the complement cascade
T9 sequence (P02745 23-245, chain 1 of 3): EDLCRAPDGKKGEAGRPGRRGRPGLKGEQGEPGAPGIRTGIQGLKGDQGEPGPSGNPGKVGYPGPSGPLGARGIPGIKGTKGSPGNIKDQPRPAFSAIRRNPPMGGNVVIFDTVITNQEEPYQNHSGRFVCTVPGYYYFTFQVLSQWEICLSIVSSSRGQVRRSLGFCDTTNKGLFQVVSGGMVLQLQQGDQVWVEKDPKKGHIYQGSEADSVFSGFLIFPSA
T9 sequence (P02746 28-253, chain 2 of 3, further chain): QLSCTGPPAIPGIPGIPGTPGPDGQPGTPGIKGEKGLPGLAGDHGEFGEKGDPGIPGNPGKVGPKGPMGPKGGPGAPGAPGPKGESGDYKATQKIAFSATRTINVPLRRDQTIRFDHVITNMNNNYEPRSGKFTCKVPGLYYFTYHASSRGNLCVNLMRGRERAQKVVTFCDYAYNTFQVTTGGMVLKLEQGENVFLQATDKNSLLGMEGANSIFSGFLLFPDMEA
T9 sequence (P02747 29-245, chain 3 of 3, further chain): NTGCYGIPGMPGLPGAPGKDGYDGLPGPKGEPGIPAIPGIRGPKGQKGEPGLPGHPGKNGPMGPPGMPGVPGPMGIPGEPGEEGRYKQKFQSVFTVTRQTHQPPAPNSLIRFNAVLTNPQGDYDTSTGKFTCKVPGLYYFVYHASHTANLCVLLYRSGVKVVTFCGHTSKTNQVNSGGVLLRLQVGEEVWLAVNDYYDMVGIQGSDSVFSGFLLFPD

[10] = target: T1, FcγRIIB-Fc fusion protein, soluble …; test: BIAcore, ch4-4-20

Binder	ELISA, OD (FcγRIIIA [4]) [OD]	Kd [6] [nM]	koff [6] [s⁻¹]	kon [6] [M⁻¹ s⁻¹]	ELISA, OD [7] [OD]	koff (FcγRIIIA 158V, soluble) [s⁻¹]	koff [8] [s⁻¹]	koff (2bfcagl (FcγRIIB-Fc)) [s⁻¹]	koff (FcγRIIIA 158F, soluble) [s⁻¹]	koff [9] [s⁻¹]	koff (C1q) [s⁻¹]	other results
ch4-4-20 Mut23 (antibody) chain 1: not shown chain 2: DVVMTQTPLSLPVSLGDQASISCRSSQSLVHSNGNTYLRWYLQKPGQSPKVLIYKVSNRFSGVPDRFSGSGSGTDFTLKISRVEAEDLGVYFCSQSTHVPWTFGGGTKLEIKRTVAAPSVFIFPPSDEQLKSGTASVVCLLNNFYPREAKVQWKVDNALQSGNSQESVTEQDSKDSTYSLSSTLTLSKADYEKHKVYACEVTHQGLSSPVTKSFNRGEC	1.25	70.2	0.105	1.43e+06	0.1							
ch-mAb 2B6 MgFc31/60 (P247L, D270E, N421K) (antibody) ASTKGPSVFPLAPSSKSTSGGTAALGCLVKDYFPEPVTVSWNSGALTSGVHTFPAVLQSSGLYSLSSVVTVPSSSLGTQTYICNVNHKPSNTKVDKKVEPKSCDKTHTCPPCPAPELLGGPSVFLFPPKLKDTLMISRTPEVTCVVVDVSHEEPEVKFNWYVDGVEVHNAKTKPREEQYNSTYRVVSVLTVLHQDWLNGKEYKCKVSNKALPAPIEKTISKAKGQPREPQVYTLPPSRDELTKNQVSLTCLVKGFYPSDIAVEWESNGQPENNYKTTPPVLDSDGSFFLYSKLTVDKSRWQQGKVFSCSVMHEALHNHYTQKSLSLSPGK						0.084	0.034	0.094	0.238	0.127		
ch-mAb 2B6 MgFc59/60 (K370E, P396L with D270E) (antibody) ASTKGPSVFPLAPSSKSTSGGTAALGCLVKDYFPEPVTVSWNSGALTSGVHTFPAVLQSSGLYSLSSVVTVPSSSLGTQTYICNVNHKPSNTKVDKKVEPKSCDKTHTCPPCPAPELLGGPSVFLFPPKPKDTLMISRTPEVTCVVVDVSHEEPEVKFNWYVDGVEVHNAKTKPREEQYNSTYRVVSVLTVLHQDWLNGKEYKCKVSNKALPAPIEKTISKAKGQPREPQVYTLPPSRDELTKNQVSLTCLVEGFYPSDIAVEWESNGQPENNYKTTPLVLDSDGSFFLYSKLTVDKSRWQQGNVFSCSVMHEALHNHYTQKSLSLSPGK						0.105	0.024	0.078	0.296	0.095	0.107	
ch4-4-20 S298N, K360R, N361D (antibody) EPKSCDKTHTCPPCPAPELLGGPSVFLFPPKPKDTLMISRTPEVTCVVVDVSHEDPEVKFNWYVDGVEVHNAKTKPREEQYNNTYRVVSVLTVLHQDWLNGKEYKCKVSNKALPAPIEKTISKAKGQPREPQVYTLPPSREEMTRDQVSLTCLVKGFYPSDIAVEWESNGQPENNYKTTPPVLDSDGSFFLYSKLTVDKSRWQQGNVFSCSVMHEALHNHYTQKSLSLSPGK												Koff WT/Mut [10]: 0.67

Continued, in another order:

ELISA, OD (FcγRIIIA [4]) [OD]	Kd [6] [nM]	koff [6] [s⁻¹]	kon [6] [M⁻¹ s⁻¹]	ELISA, OD [7] [OD]	koff (FcγRIIIA 158V, soluble) [s⁻¹]	koff [8] [s⁻¹]	koff (2bfcagl (FcγRIIB-Fc)) [s⁻¹]	koff (FcγRIIIA 158F, soluble) [s⁻¹]	koff [9] [s⁻¹]	koff (C1q) [s⁻¹]	Binder	other results
1.1	75.4	0.1	1.37e+06	0.13							ch4-4-20 K288M, K334E (antibody) chain 1: not shown chain 2: DVVMTQTPLSLPVSLGDQASISCRSSQSLVHSNGNTYLRWYLQKPGQSPKVLIYKVSNRFSGVPDRFSGSGSGTDFTLKISRVEAEDLGVYFCSQSTHVPWTFGGGTKLEIKRTVAAPSVFIFPPSDEQLKSGTASVVCLLNNFYPREAKVQWKVDNALQSGNSQESVTEQDSKDSTYSLSSTLTLSKADYEKHKVYACEVTHQGLSSPVTKSFNRGEC	ELISA IIIA binding vs wt (FcγRIIIA [1]): 3 X; Kd [2]: 75.4 nM; koff [2]: 0.1 s⁻¹; Kd [3]: 95.6 nM; koff [3]: 0.089 s⁻¹; ELISA binding increase vs wt (FcγRIIIA [5]): 3 x
					0.112	0.028	0.077	0.293	0.089	0.079	ch-mAb 2B6 MgFc51/60 (Q419H, P396L with D270E) (antibody) ASTKGPSVFPLAPSSKSTSGGTAALGCLVKDYFPEPVTVSWNSGALTSGVHTFPAVLQSSGLYSLSSVVTVPSSSLGTQTYICNVNHKPSNTKVDKKVEPKSCDKTHTCPPCPAPELLGGPSVFLFPPKPKDTLMISRTPEVTCVVVDVSHEEPEVKFNWYVDGVEVHNAKTKPREEQYNSTYRVVSVLTVLHQDWLNGKEYKCKVSNKALPAPIEKTISKAKGQPREPQVYTLPPSRDELTKNQVSLTCLVKGFYPSDIAVEWESNGQPENNYKTTPLVLDSDGSFFLYSKLTVDKSRWQHGNVFSCSVMHEALHNHYTQKSLSLSPGK	
